From the nanobody polyreactivity screen of Harvey et al. (2022)

Experiment: yeast display, Sf9 membrane polyspecificity reagent, FACS + sequencing; frameworks hold sequencing errors
Outline: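 Galactose induction of a Saccharomyces cerevisiae BJ5465 synthetic nanobody display library ran 36–48 hours. The cells were then stained for 1 hour at 4 °C with 10% biotinylated, detergent-solubilized Sf9 membrane reagent, pulled down on streptavidin microbeads and FACS-sorted into low and high (top ~1%) gates on expression and reagent-binding fluorescence. Labels for polyreactivity follow the gate of origin.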

QVQLVESGGGLVQAGGSLRLSSAASGRTLSKNAMGWYRQAPGKERELVATISSVGRTNYADSVKGRFTISRDNAKNTVYLQMNSLKPEDTAVYYCAATVRGKRSTYDYWGQGTQVTVSS
polyreactivity (PSR sort gate): high polyreactivity

QVQLVESGGGLVQAGGSLRLSSAASGRTSLAYAMGWYRQAPGKERELVAVITSGGNTNYADSVKGRFTISRDNAKNTVYLQMNSLKPEDTAVYYCNKKKRWQWYSESVLDYLGFYSWGQGTQVTVSS
polyreactivity (PSR sort gate): low polyreactivity

QVQLVESGGGLVQAGGSLRLSSAASGSIFASYAMGWYRQAPGKERELVAAISRRAVRTYYADSVKGRFTISRDNAKNTVYLQMNSLKPEDSAVYYCNAASSLPGYDYWGQGTQLTVSS
polyreactivity (PSR sort gate): high polyreactivity

QVQLVESGGGLVQAGGSLRLSSAASGSIFDKNAMGWYRQAPGKERELVAAIRRTSTTYYADSVKGRFTISRDNAKNTVFLKMNSLKPEDTAVYYCAATYGSGYWYPRYYYWGQGTEVTVSS
polyreactivity (PSR sort gate): high polyreactivity

QVQLVESGGGLVQAGGSLRLSSAASGSIFELNAMGWYRQAPGKERELVASISFRGTSTYYADSVKGRFTISRDYAKNTVYLKMNSLKPDDNAVYYCAADTTFPFSYWGQGTQVTVSS
polyreactivity (PSR sort gate): low polyreactivity

QVQLVESGGGLVQAGGSLRLSSAASGSIFGDYVMGWSRQAPGKERELVAAINRGGSTYYADSVKGRFTISRDNAKNTVYLHMNSLKPEDTAVYYCAAGYPSWYYGDPYDSWGQGTQVTVSS
polyreactivity (PSR sort gate): low polyreactivity

QVQLVESGGGLVQAGGSLRLSSAASGSIFPKNTMGWYRQAPGKERELVAAISKSGGSTYYADSVKGRFTISRDNAKNTVYLQMNSLKPEDTAVYYCAAALGLRSTSWGRRGGGGDYWGQGTQVTVSS
polyreactivity (PSR sort gate): high polyreactivity

QVQLVESGGGLVQAGGSLRLSSAASGSIFRRYALGWYRQEPGKESELVAAISRSAGSTYYADSVKGRFTISRDNAKNTVYLQMNSLKPEETAVYYCKTDPSRSPGDVVSASVIKRDYWGQGTQVTVSS
polyreactivity (PSR sort gate): low polyreactivity

QVQLVESGGGLVQAGGSLRLSSAASGSIFRWYAMGWYRQAPGKERELVAAISRGGRTNYADSVKGRFTISRDNAKNTVYLQMNSLKPEDTAVYYCNKVLRNYSSTGVISVLTDYDYWGQGTQVTVSS
polyreactivity (PSR sort gate): high polyreactivity

QVQLVESGGGLVQAGGSLRLSSAASGSIFSRYAMGWYRQAPGKEREMVAALNGRGSRTYYADSVKGRFTISRDNSKNTVYLLMNSLKPEDTAVYYCAAESYTAWELDYWGQGTQVTVSS
polyreactivity (PSR sort gate): high polyreactivity

QVQLVESGGGLVQAGGSLRLSSAASGSIFYYNAMGWYRQAPGKEREFVAAISARGGSTYYADSVKGRFTISRDNAKNTVYLQMNSLKPEDTAVYYCAASWGLDTYSDSTYWGGYYYSGQGTQVTVSS
polyreactivity (PSR sort gate): low polyreactivity

QVQLVESGGGLVQAGGSLRLSSAASGSILYFNAMGWYRQAPGKERELVAAISRSGGSTYYADSVKGRFTISRDNAKNTVYLQMNSLKPEDTAVYYCAAVYIRCRGNRFDYWGQGTQVTVSS
polyreactivity (PSR sort gate): high polyreactivity

QVQLVESGGGLVQAGGSLRLSSAASGSNFPPNAMGWYRQAPGKEREFVASITSSGGITNYADSVKGRFTISRDNAKNTVYLQMNSLKPEDTAVYYCAAKYYGGTRFRPYGYWGQGTQVTVSS
polyreactivity (PSR sort gate): high polyreactivity

QVQLVESGGGLVQAGGSLRLSSAASGSSFYRYAMGSYRQAPGKERELVATITRSGGSTYYADSVKGRFTISRDNAKNTVYLQMNSLKPEDTAVYYCAARGWYKSDYWGQGTQVTVSS
polyreactivity (PSR sort gate): low polyreactivity

QVQLVESGGGLVQAGGSLRLSSAASGSTFAEYAMGWYRQAPGKERELVAAIRWSGGSTSYADSVKGRFTISRDNAKNTVYLQMNSLKPEDTAVYYCAAERFWYDGEVKLYVLSYYWGQGTQVTVSS
polyreactivity (PSR sort gate): low polyreactivity

QVQLVESGGGLVQAGGSLRLSSAASGSTFAYYAMGWYRQEPAKEGELVASISWRGGSTYYADSVKGRFTISRDNAKNTVYLQMNSLKPEDTAVYYCAARSTYRPWLLSAYGYWGQGTQVTVSS
polyreactivity (PSR sort gate): low polyreactivity

QVQLVESGGGLVQAGGSLRLSSAASGSTFGYYAMGWYRQPPGKERELVAAISSSAGTTYYADSVKGCFTISRDNAKNTVYLQMNSLKPEDTAVYYCAADAVSGREYWGQGTQVTVST
polyreactivity (PSR sort gate): low polyreactivity

QVQLVESGGGLVQAGGSLRLSSAASGSTFLYVMGWYRQAPGKERELVAAISESGGSTYYADSVKGRFTISRDNAKNTVYLQMNSLKPEDTAVYYCAADLPTGLQYRYYRVDYWGHGTQVTVSS
polyreactivity (PSR sort gate): low polyreactivity

QVQLVESGGGLVQAGGSLRLSSAASGSTFPYVKGWYRQAPGKESEFVAAISQRTGSTYYADSVKGRFTISRDNAKNTVYLQMNSLKPEDTAVYYCAKPGYLRPSRYDYWGQGTQVTVSS
polyreactivity (PSR sort gate): high polyreactivity

QVQLVESGGGLVQAGGSLRLSSAASGSTFQDYDMRRSRQAPGKERELVAVISGSGGCTYYADSVKGRFTISRDNAKNTVYLQMNSLKPEDTAVYYCATDIKDGRPGDGVYDYGYWGQGTQVTVSS
polyreactivity (PSR sort gate): low polyreactivity

QVQLVESGGGLVQAGGSLRLSSAASGSTFTPYVMGWYRQAPGKERELVAAISKRGGSTYYADSVKGRFTISRDNANNTVYLQMNSLKPEDTAVYYCAAVQPAWGNGYWGQGTQVTVSS
polyreactivity (PSR sort gate): high polyreactivity

QVQLVESGGGLVQAGGSLRLSSAASGSTFVQNAIGWYRQAPGKERELVAAISRTGGSTYSAHSVKGRFTIYRDNAKNTVYLEMNSLKPEDTAVYYFAKRPPHYSWPTFIEFGSWGLGTQVTVSS
polyreactivity (PSR sort gate): high polyreactivity
